# Test results from publication doi:10.1101/2025.03.26.645558.
# Tests used:
# [1] = target: E. fergusonii BrxB WT (Escherichia fergusonii); test: native MS; collected BrxB SEC peaks exchanged into 10 mM ammonium bicarbonate, 0.5 mg/ml, ES+-ToF MS (Xevo QToF)
# [2] = target: E. fergusonii BrxB WT (Escherichia fergusonii); test: SEC; analytical SEC of BrxB alone on Superdex 75 increase 10/300 GL, 10 μM, 20 mM Tris HCl pH 7.9, 150 mM NaCl; monomer and dimer
substance,measurement,setting,value
E. fergusonii BrxB WT (natural protein),stoichiometry N,[1],2
same,stoichiometry N,[2],2
